The assay concerns the target T1, HA A/Solomon Islands/03/2006 globular head (Influenza A virus A/Solomon …).
T1 chain: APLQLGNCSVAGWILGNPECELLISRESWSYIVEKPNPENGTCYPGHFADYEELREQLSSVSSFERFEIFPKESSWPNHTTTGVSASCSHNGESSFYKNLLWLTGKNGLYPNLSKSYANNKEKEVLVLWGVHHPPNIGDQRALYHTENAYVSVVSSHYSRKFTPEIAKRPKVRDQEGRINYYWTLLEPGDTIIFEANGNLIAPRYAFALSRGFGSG
In words: BLI.

B1: CH67 Fab, critical dipeptide VD changed to ID (Fab, V domains shown)
VH: QVQLVQSGAEVRKPGASVKVSCKASGYTFTDNYIHWVRQAPGQGLEWMGWIHPNSGATKYAQKFEGWVTMTRDTSISTVYMELSRSRSDDTAVYYCARAGLEPRSIDYYFYGLDVWGQGTAVTVSS
VL: QSALTQPPSVSVAPGQTATITCGGNNIGRKRVDWFQQKPGQAPVLVVYEDSDRPSGIPERFSDSNSGTTATLTISRVEAGDEADYYCQVWDSDSDHVVFGGGTKLTVL
The Kd is the equilibrium constant for the complex coming apart. High values mean lower affinity, low ones higher affinity. As a reminder, the kon is a measure of how fast the partners come together. Low values mean slow association, high ones fast association. With B1, the Kd is 1790 ± 120 nM and the kon worked out at 42400 M⁻¹ s⁻¹.
